Drawing on the supplement of paper PMC10567573, this text covers protein stability index for 94 variants.

B1: ESRRA (parent)
chain: LGVAQRSLPLQDELAFAEDLVLDE
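Note: lentivirally expressed fusions sorted by FACS into six bins by GFP to DsRed ratio, PSI derived from sequencing read proportions per bin multiplied by bin number.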

In the data set the parent is B1. Nature of the data set: protein stability index of a GFP-peptide fusion (GPS, HEK-293T) (PSI 1-6); higher = more stable. The conditions noted are these: c terminus: a fixed tail appended.
On to LGVAQRSLPLQDELAFAWDLVLDE [E18W], for which the protein stability index turned out to be 3.11.

Turning to LGVAQRSLPLQDELAFAQDLVLDE [E18Q], the protein stability index was determined as 4.34.

Turning to LGVAQRSLPLQDELAFATDLVLDE [E18T], the protein stability index was found to be 4.81.

Consider LGVAQRSLPLQDELAFAPDLVLDE [E18P], for which the protein stability index is 4.64.

For LGVAQRSLPLQDELAFAYDLVLDE [E18Y], the protein stability index was found to be 3.48.

Take LGVAQRSLPLQDELAFASDLVLDE [E18S]: the protein stability index came out at 4.4.

Consider LGVAQRSLPLQDELAFAVDLVLDE [E18V], for which the protein stability index was found to be 3.65.

Consider LGVAQRSLPLQDELAFARDLVLDE [E18R], for which the protein stability index was found to be 5.04.

Turning to LGVAQRSLPLQDELAFAEDTVLDE [L20T], the protein stability index was 5.16.

For the variant LGVAQRSLPLQDELAFAEDCVLDE [L20C], the protein stability index turned out to be 2.51.

Regarding LGVAQRSLPLQDELAFAEDMVLDE [L20M], the protein stability index was 2.16.

Take LGVAQRSLPLQDELAFAEDGVLDE [L20G]: the protein stability index was found to be 5.51.

As for LGVAQRSLPLQDELAFAEDEVLDE [L20E], the protein stability index worked out at 3.12.

In the case of LGVAQRSLPLQDELAFAEDNVLDE [L20N], the protein stability index was 4.85.

Regarding LGVAQRSLPLQDELAFAEDDVLDE [L20D], the protein stability index was determined as 5.36.

Consider LGVAQRSLPLQDELAFAEDKVLDE [L20K], for which the protein stability index came out at 4.98.

Take LGVAQRSLPLQDELAFAEDHVLDE [L20H]: the protein stability index stood at 4.81.

Regarding LGVAQRSLPLQDELAFAEDIVLDE [L20I], the protein stability index came out at 3.18.

LGVAQRSLPLQDELAFAEDRVLDE [L20R]: the protein stability index is 4.19.

For the variant LGVAQRSLPLQDELAFAEDAVLDE [L20A], the protein stability index came out at 4.42.

For the variant LGVAQRSLPLQDELAFAEDSVLDE [L20S], the protein stability index amounted to 4.4.

In the case of LGVAQRSLPLQDELAFAEDWVLDE [L20W], the protein stability index turned out to be 4.82.

As for LGVAQRSLPLQDELAFAEDVVLDE [L20V], the protein stability index amounted to 3.67.

With LGVAQRSLPLQDELAFAEDFVLDE [L20F], the protein stability index worked out at 4.98.

On to LGVAQRSLPLQDELAFAEDPVLDE [L20P], for which the protein stability index stood at 5.75.

For the variant LGVAQRSLPLQDELAFAEDYVLDE [L20Y], the protein stability index was 4.67.

Consider LGVAQRSLPLQDELAFAEDQVLDE [L20Q], for which the protein stability index stood at 4.21.

For LGVAQRSLPLQDELAFAEDLVLSE [D23S], the protein stability index is 2.58.

Regarding LGVAQRSLPLQDELAFAEDLVLAE [D23A], the protein stability index is 3.11.

In the case of LGVAQRSLPLQDELAFAEDLVLME [D23M], the protein stability index was found to be 2.01.

With LGVAQRSLPLQDELAFAEDLVLCE [D23C], the protein stability index is 2.38.

As to LGVAQRSLPLQDELAFAEDLVLVE [D23V], the protein stability index came out at 1.88.

On to LGVAQRSLPLQDELAFAEDLVLGE [D23G], for which the protein stability index came out at 1.72.

For LGVAQRSLPLQDELAFAEDLVLTE [D23T], the protein stability index turned out to be 3.21.

For the variant LGVAQRSLPLQDELAFAEDLVLKE [D23K], the protein stability index was determined as 2.41.

For LGVAQRSLPLQDELAFAEDLVLFE [D23F], the protein stability index stood at 5.28.

LGVAQRSLPLQDELAFAEDLVLYE [D23Y]: the protein stability index stood at 2.3.

On to LGVAQRSLPLQDELAFAEDLVLQE [D23Q], for which the protein stability index was 1.74.

As to LGVAQRSLPLQDELAFAEDLVLHE [D23H], the protein stability index was found to be 2.34.

For the variant LGVAQRSLPLQDELAFAEDLVLEE [D23E], the protein stability index came out at 2.65.

Regarding LGVAQRSLPLQDELAFAEDLVLPE [D23P], the protein stability index stood at 4.49.

Take LGVAQRSLPLQDELAFAEDLVLLE [D23L]: the protein stability index turned out to be 2.64.

Regarding LGVAQRSLPLQDELAFAEDLVLNE [D23N], the protein stability index was determined as 1.88.

Regarding LGVAQRSLPLQDELAFAEDLVLWE [D23W], the protein stability index worked out at 2.1.

In the case of LGVAQRSLPLQDELAFAEDLVLIE [D23I], the protein stability index amounted to 1.51.

Turning to LGVAQRSLPLQDELAFAEDLVLRE [D23R], the protein stability index was determined as 2.51.

Regarding LGVAQRSLPLQDELAFAEDLVCDE [L22C], the protein stability index came to 3.76.

On to LGVAQRSLPLQDELAFAEDLVYDE [L22Y], for which the protein stability index came to 3.98.

On to LGVAQRSLPLQDELAFAEDLVVDE [L22V], for which the protein stability index was 4.14.

Regarding LGVAQRSLPLQDELAFAEDLVEDE [L22E], the protein stability index came out at 5.71.

As to LGVAQRSLPLQDELAFAEDLVTDE [L22T], the protein stability index came to 5.18.

In the case of LGVAQRSLPLQDELAFAEDLVPDE [L22P], the protein stability index was 5.34.

LGVAQRSLPLQDELAFAEDLVADE [L22A]: the protein stability index was 3.96.

For LGVAQRSLPLQDELAFAEDLVHDE [L22H], the protein stability index was 3.52.

As to LGVAQRSLPLQDELAFAEDLVIDE [L22I], the protein stability index came out at 3.55.

Consider LGVAQRSLPLQDELAFAEDLVNDE [L22N], for which the protein stability index is 4.69.

LGVAQRSLPLQDELAFAEDLVWDE [L22W]: the protein stability index is 3.85.

In the case of LGVAQRSLPLQDELAFAEDLVFDE [L22F], the protein stability index came out at 3.95.

As for LGVAQRSLPLQDELAFAEDLVMDE [L22M], the protein stability index turned out to be 4.2.

In the case of LGVAQRSLPLQDELAFAEDLVGDE [L22G], the protein stability index amounted to 5.51.

Take LGVAQRSLPLQDELAFAEDLVRDE [L22R]: the protein stability index is 2.89.

Consider LGVAQRSLPLQDELAFAEDLVDDE [L22D], for which the protein stability index came out at 5.13.

In the case of LGVAQRSLPLQDELAFAEDLVKDE [L22K], the protein stability index turned out to be 2.74.

Take LGVAQRSLPLQDELAFAEDLVSDE [L22S]: the protein stability index was determined as 5.02.

As for LGVAQRSLPLQDELAFAEDLVQDE [L22Q], the protein stability index is 3.81.

Regarding LGVAQRSLPLQDELAFAEDLVLDL [E24L], the protein stability index is 2.3.

Regarding LGVAQRSLPLQDELAFAEDLVLDD [E24D], the protein stability index amounted to 4.07.

LGVAQRSLPLQDELAFAEDLVLDR [E24R]: the protein stability index amounted to 3.38.

With LGVAQRSLPLQDELAFAEDLVLDA [E24A], the protein stability index was 1.89.

As to LGVAQRSLPLQDELAFAEDLVLDY [E24Y], the protein stability index is 2.53.

Take LGVAQRSLPLQDELAFAEDLVLDC [E24C]: the protein stability index came to 1.66.

Take LGVAQRSLPLQDELAFAEDLVLDN [E24N]: the protein stability index turned out to be 3.24.

Turning to LGVAQRSLPLQDELAFAEDLVLDM [E24M], the protein stability index was 2.95.

Take LGVAQRSLPLQDELAFAEDLVLDH [E24H]: the protein stability index is 2.57.

As to LGVAQRSLPLQDELAFAEDLVLDT [E24T], the protein stability index stood at 3.11.

Regarding LGVAQRSLPLQDELAFAEDLVLDS [E24S], the protein stability index worked out at 3.13.

As for LGVAQRSLPLQDELAFAEDLVLDK [E24K], the protein stability index worked out at 4.02.

Turning to LGVAQRSLPLQDELAFAEDLVLDI [E24I], the protein stability index was 3.34.

In the case of LGVAQRSLPLQDELAFAEDLVLDQ [E24Q], the protein stability index stood at 3.67.

In the case of LGVAQRSLPLQDELAFAEDLVLDW [E24W], the protein stability index amounted to 2.21.

Regarding LGVAQRSLPLQDELAFAEDLVLDF [E24F], the protein stability index was found to be 2.42.

Take LGVAQRSLPLQDELAFAEDLVLDP [E24P]: the protein stability index came out at 3.92.

Turning to LGVAQRSLPLQDELAFAEDLVLDG [E24G], the protein stability index came out at 4.13.

With LGVAQRSLPLQDELAFAEDLVLDV [E24V], the protein stability index was 2.21.

Take LGVAQRSLPLQDELAFAEILVLDE [D19I]: the protein stability index turned out to be 1.94.

Turning to LGVAQRSLPLQDELAFAEALVLDE [D19A], the protein stability index was found to be 1.89.

Take LGVAQRSLPLQDELAFAETLVLDE [D19T]: the protein stability index stood at 1.91.

As to LGVAQRSLPLQDELAFAEELVLDE [D19E], the protein stability index turned out to be 2.34.

Consider LGVAQRSLPLQDELAFAELLVLDE [D19L], for which the protein stability index worked out at 2.16.

In the case of LGVAQRSLPLQDELAFAEVLVLDE [D19V], the protein stability index is 1.76.

As to LGVAQRSLPLQDELAFAEMLVLDE [D19M], the protein stability index amounted to 2.43.

LGVAQRSLPLQDELAFAEHLVLDE [D19H]: the protein stability index amounted to 1.83.

With LGVAQRSLPLQDELAFAEGLVLDE [D19G], the protein stability index was found to be 2.05.

For the variant LGVAQRSLPLQDELAFAEYLVLDE [D19Y], the protein stability index was 2.03.
